Five molecules from patent US11708423B2, “Chimeric engulfment receptor molecules and methods of use” (CERO THERAPEUTICS, INC., priority 2017, dated 2023) can be followed below.

One assay has as its system SCC152 cells. Nature of the assay: Phagocytic activity of tandem expression cassette transduced CD8+ T cells. Conditions: for phagocytosis of SCC152 cells: CD8+ T cells, 6 hours, 1:1 ratio; for dependence of engulfment of SCC152 cells on Racl: Racl inhibitor NSC23766 (50 μM), data not shown. In kind it is cell-based, human. The procedure: Phagocytic activity of tandem expression cassette transduced CD8+ T cells was detected by co-culturing tandem expression cassette transduced CD8+ T cells with SCC152 cells for 6 hours at a 1:1 ratio. Phagocytic events were visualized and quantified using KEYENCE BZ-X710 fluorescence microscope, 20X objective and hybrid capture software.

Assay [1] deals with H1975 lung adenocarcinoma cells. Nature of the assay: LDH assay, H1975 cells, 48 hours co-culture with 1 μM Osimeritinib. In kind it is cell-based. Conditions: E:T 1:1, 48 hours, CD4+ T cells. An excerpt: CER30 comprises a Tim4 binding domain, Tim4 transmembrane domain, and an engulfment signaling domain comprising a primary engulfment signaling domain comprising a TRAF2 signaling domain. CER30 has a polypeptide sequence as set forth in SEQ ID NO:96. CER110 has a polypeptide sequence of SEQ ID NO:125 and comprises a Tim4 binding domain, Tim4 transmembrane domain, and an engulfment signaling domain comprising a primary engulfment signaling domain comprising a TRAF6 signaling domain and a secondary engulfment signaling domain comprising a DAP12 signaling domain. CER112 has a polypeptide sequence of SEQ ID NO:128 and comprises a Tim4 binding domain, Tim4 transmembrane domain, and an engulfment signaling domain comprising a primary engulfment signaling domain comprising a TRAF6 signaling domain and a secondary engulfment signaling domain comprising a NFAM1 signaling domain. CER127 has a polypeptide sequence of SEQ ID NO:175 and comprises a Tim4 binding domain, Tim4 transmembrane domain, and an engulfment signaling domain comprising a primary engulfment signaling domain comprising a TRAF2 signaling domain and a secondary engulfment signaling domain comprising a TLR2 signaling domain. H1975 cells are more resistant to EGFR inhibitors, so Osimeritinib was used at slightly higher concentration. H1975 lung adenocarcinoma cells harboring an EGFR mutation were co-cultured with CER-expressing or mock-transduced (vector only) CD4+ T cells with 1 μM of Osimeritinib. After 48 hours of co-culture at a 1:1 effector:target cell ratio, T cells were washed away, and the number of viable H1975 cells was quantified using a calorimetric LDH assay (FIG. 57). Cell viability experiments were performed in triplicate and presented as % of control.

B1: CER31−HPV16 E7 TCR: tandem expression cassette: CER31, T2A peptide, HPV16 E7 specific TCR; SEQ ID NO:170 (protein)
chain: MSKGLLLLWLVTELWWLYLTPAASEDTIIGFLGQPVTLPCHYLSWSQSRNSMCWGKGSCPNSKCNAELLRTDGTRIISRKSTKYTLLGKVQFGEVSLTISNTNRGDSGVYCCRIEVPGWFNDVKKNVRLELRRATTTKKPTTTTRPTTTPYVTTTTPELLPTTVMTTSVLPTTTPPQTLATTAFSTAVTTCPSTTPGSFSQETTKGSAFTTESETLPASNHSQRSMMTISTDIAVLRPTGSNPGILPSTSQLTTQKTTLTTSESLQKTTKSHQINSRQTILIIACCVGFVLMVLLFLAFLMESSKKMDSPGALQTNPPLKLHTDRSAGTPVFVPEQGGYKEKFVKTVEDKYKCEKCHLVLCSPKQTECGHRFCESCMAALLSSSSPKCTACQESIVKDKVFKDNCCKREILALQIYCRNESRGCAEQLMLGHLLVHLKNDCHFEELPCVRPDCKEKVLRKDLRDHVEKACKYREATCSHCKSQVPMIALQKHEDTDCPCVVVSCPHKCSVQTLLRSELSAHLSECVNAPSTCSFKRYGCVFQGTNQQIKAHEASSAVQHVNLLKEWSNSLEKKVLEGGGEGRGSLLTCGDVEENPGPMAPGLLCWALLCLLGAGLVDAGVTQSPTHLIKTRGQQVTLRCSPKSGHDTVSWYQQALGQGPQFIFQYYEEEERQRGNFPDRFSGHQFPNYSSELNVNALLLGDSALYLCASSLGWRGGRYNEQFFGPGTRLTVLEDLRNVTPPKVSLFEPSKAEIANKQKATLVCLARGFFPDHVELSWWVNGKEVHSGVCTDPQAYKESNYSYCLSSRLRVSATFWHNPRNHFRCQVQFHGLSEEDKWPEGSPKPVTQNISAEAWGRADCGITSASYQQGVLSATILYEILLGKATLYAVLVSTLVVMAMVKRKNSRAKRSGSGATNFSLLKQAGDVEENPGPMWGVFLLYVSMKMGGTTGQNIDQPTEMTATEGAIVQINCTYQTSGFNGLFWYQQHAGEAPTFLSYNVLDGLEEKGRFSSFLSRSKGYSYLLLKELQMKDSASYLCASVDGNNRLAFGKGNQVVVIPNIQNPEPAVYQLKDPRSQDSTLCLFTDFDSQINVPKTMESGTFITDKCVLDMKAMDSKSNGAIAWSNQTSFTCQDIFKETNATYPSSDVPCDATLTEKSFETDMNLNFQNLLVIVLRILLLKVAGFNLLMTLRLWSS
modifications: CER31_T2A_HPV16_E7_TCR tandem cassette
Turning to B1, in the assay with SCC152 cells, the “phagocytosis of SCC152 cells” value is on record as “capable of phagocytosing SCC152 cells” and the “dependence of engulfment of SCC152 cells on Racl” value is given as “Racl-dependent manner”.

B2: CER110: Tim4 binding and transmembrane domains, truncated Traf6 primary and DAP12 secondary signaling domains; SEQ ID NO:125 (protein)
chain: MSKGLLLLWLVTELWWLYLTPAASEDTIIGFLGQPVTLPCHYLSWSQSRNSMCWGKGSCPNSKCNAELLRTDGTRIISRKSTKYTLLGKVQFGEVSLTISNTNRGDSGVYCCRIEVPGWFNDVKKNVRLELRRATTTKKPTTTTRPTTTPYVTTTTPELLPTTVMTTSVLPTTTPPQTLATTAFSTAVTTCPSTTPGSFSQETTKGSAFTTESETLPASNHSQRSMMTISTDIAVLRPTGSNPGILPSTSQLTTQKTTLTTSESLQKTTKSHQINSRQTILIIACCVGFVLMVLLFLAFLMSLLNCENSCGSSQSESDCCVAMASSCSAVTKDDSVGGTASTGNLSSSFMEEIQGYDVEFDPPLESKYECPICLMALREAVQTPCGHRFCKACIIKSIRDAGHKCPVDNEILLENQLFPDNFAKREILSLMVKCPNEGCLHKMELRHLEDHQAHCEFALMDCPQCQRPFQKFHINIHILKDCPRRQVSCDNCAASMAFEDKEIHDQNCPLANVICEYCNTILIREQMPNHYDLDCPTAPIPCTFSTFGCHEKMQRNHLARHLQENTQSHMRMLAYFLGRLVPRGRGAAEAATRKQRITETESPYQELQGQRSDVYSDLNTQRPYYK
modifications: CER110 chimeric engulfment receptor
Turning to B2, the “killing of H1975 cells (LDH)” value in assay [1] is on record as “synergistic killing of H1975 lung adenocarcinoma cells upon EGFR inhibition”.

B3: CER112: Tim4 binding and transmembrane domains, truncated Traf6 primary and NFAM1 secondary signaling domains; SEQ ID NO:128 (protein)
chain: MSKGLLLLWLVTELWWLYLTPAASEDTIIGFLGQPVTLPCHYLSWSQSRNSMCWGKGSCPNSKCNAELLRTDGTRIISRKSTKYTLLGKVQFGEVSLTISNTNRGDSGVYCCRIEVPGWFNDVKKNVRLELRRATTTKKPTTTTRPTTTPYVTTTTPELLPTTVMTTSVLPTTTPPQTLATTAFSTAVTTCPSTTPGSFSQETTKGSAFTTESETLPASNHSQRSMMTISTDIAVLRPTGSNPGILPSTSQLTTQKTTLTTSESLQKTTKSHQINSRQTILIIACCVGFVLMVLLFLAFLMSLLNCENSCGSSQSESDCCVAMASSCSAVTKDDSVGGTASTGNLSSSFMEEIQGYDVEFDPPLESKYECPICLMALREAVQTPCGHRFCKACIIKSIRDAGHKCPVDNEILLENQLFPDNFAKREILSLMVKCPNEGCLHKMELRHLEDHQAHCEFALMDCPQCQRPFQKFHINIHILKDCPRRQVSCDNCAASMAFEDKEIHDQNCPLANVICEYCNTILIREQMPNHYDLDCPTAPIPCTFSTFGCHEKMQRNHLARHLQENTQSHMRMLALWNKKRMRGPGKDPTRKCPDPRSASSPKQHPSESVYTALQRRETEVYACIENEDGSSPTAKQSPLSQERPHRFEDDGELNLVYENL
modifications: CER112 chimeric engulfment receptor
As to B3, the “killing of H1975 cells (LDH)” value in assay [1] is recorded as “synergistic killing of H1975 lung adenocarcinoma cells upon EGFR inhibition”.

B4: CER29−HPV16 E7 TCR: tandem expression cassette: CER29, T2A peptide, HPV16 E7 specific TCR; SEQ ID NO:169 (protein)
chain: MSKGLLLLWLVTELWWLYLTPAASEDTIIGFLGQPVTLPCHYLSWSQSRNSMCWGKGSCPNSKCNAELLRTDGTRIISRKSTKYTLLGKVQFGEVSLTISNTNRGDSGVYCCRIEVPGWFNDVKKNVRLELRRATTTKKPTTTTRPTTTPYVTTTTPELLPTTVMTTSVLPTTTPPQTLATTAFSTAVTTCPSTTPGSFSQETTKGSAFTTESETLPASNHSQRSMMTISTDIAVLRPTGSNPGILPSTSQLTTQKTTLTTSESLQKTTKSHQINSRQTILIIACCVGFVLMVLLFLAFLMSLLNCENSCGSSQSESDCCVAMASSCSAVTKDDSVGGTASTGNLSSSFMEEIQGYDVEFDPPLESKYECPICLMALREAVQTPCGHRFCKACIIKSIRDAGHKCPVDNEILLENQLFPDNFAKREILSLMVKCPNEGCLHKMELRHLEDHQAHCEFALMDCPQCQRPFQKFHINIHILKDCPRRQVSCDNCAASMAFEDKEIHDQNCPLANVICEYCNTILIREQMPNHYDLDCPTAPIPCTFSTFGCHEKMQRNHLARHLQENTQSHMRMLALEGGGEGRGSLLTCGDVEENPGPMAPGLLCWALLCLLGAGLVDAGVTQSPTHLIKTRGQQVTLRCSPKSGHDTVSWYQQALGQGPQFIFQYYEEEERQRGNFPDRFSGHQFPNYSSELNVNALLLGDSALYLCASSLGWRGGRYNEQFFGPGTRLTVLEDLRNVTPPKVSLFEPSKAEIANKQKATLVCLARGFFPDHVELSWWVNGKEVHSGVCTDPQAYKESNYSYCLSSRLRVSATFWHNPRNHFRCQVQFHGLSEEDKWPEGSPKPVTQNISAEAWGRADCGITSASYQQGVLSATILYEILLGKATLYAVLVSTLVVMAMVKRKNSRAKRSGSGATNFSLLKQAGDVEENPGPMWGVFLLYVSMKMGGTTGQNIDQPTEMTATEGAIVQINCTYQTSGFNGLFWYQQHAGEAPTFLSYNVLDGLEEKGRFSSFLSRSKGYSYLLLKELQMKDSASYLCASVDGNNRLAFGKGNQVVVIPNIQNPEPAVYQLKDPRSQDSTLCLFTDFDSQINVPKTMESGTFITDKCVLDMKAMDSKSNGAIAWSNQTSFTCQDIFKETNATYPSSDVPCDATLTEKSFETDMNLNFQNLLVIVLRILLLKVAGFNLLMTLRLWSS
modifications: CER29_T2A_HPV16_E7_TCR tandem cassette
In the case of B4, in the assay with SCC152 cells, the “phagocytosis of SCC152 cells” value is given as “capable of phagocytosing SCC152 cells” and the “dependence of engulfment of SCC152 cells on Racl” value is recorded as “Racl-dependent manner”.

B5: CER120: Tim4 binding and transmembrane domains, TLR1 primary and DAP12 secondary signaling domains; SEQ ID NO:147 (protein)
chain: MSKGLLLLWLVTELWWLYLTPAASEDTIIGFLGQPVTLPCHYLSWSQSRNSMCWGKGSCPNSKCNAELLRTDGTRIISRKSTKYTLLGKVQFGEVSLTISNTNRGDSGVYCCRIEVPGWFNDVKKNVRLELRRATTTKKPTTTTRPTTTPYVTTTTPELLPTTVMTTSVLPTTTPPQTLATTAFSTAVTTCPSTTPGSFSQETTKGSAFTTESETLPASNHSQRSMMTISTDIAVLRPTGSNPGILPSTSQLTTQKTTLTTSESLQKTTKSHQINSRQTILIIACCVGFVLMVLLFLAFLSYLDLPWYLRMVCQWTQTRRRARNIPLEELQRNLQFHAFISYSGHDSFWVKNELLPNLEKEGMQICLHERNFVPGKSIVENIITCIEKSYKSIFVLSPNFVQSEWCHYELYFAHHNLFHEGSNSLILILLEPIPQYSIPSSYHKLKSLMARRTYLEWPKEKSKRGLFWANLRAAINIKLTEQAKKYFLGRLVPRGRGAAEAATRKQRITETESPYQELQGQRSDVYSDLNTQRPYYK
modifications: CER120 protein
For the molecule B5, in assay [1], the “killing of H1975 cells (LDH)” value was “synergistic killing of H1975 lung adenocarcinoma cells upon EGFR inhibition”.
